Data: publication PMC10540216, “Activity Guided Azide-methyllysine Photo-trapping for Substrate Profiling of Lysine Demethylases” (Journal of the American Chemical Society, 2023)

B1: SYIM_HUMAN (protein, UniProt Q9NSE4 49-1012, looked up)
Isoleucine--tRNA ligase, …: SNHQPNSNSGRYRDTVLLPQTSFPMKLLGRQQPDTELEIQQKCGFSELYSWQRERKVKTEFCLHDGPPYANGDPHVGHALNKILKDIANRFHMMNGSKIHFVPGWDCHGLPIEIKVLSELGREAQNLSAMEIRKKARSFAKAAIEKQKSAFIRWGIMADWNNCYYTFDGKYEAKQLRTFYQMYDKGLVYRSYKPVFWSPSSRTALAEAELEYNPEHVSRSIYVKFPLLKPSPKLASLIDGSSPVSILVWTTQPWTIPANEAVCYMPESKYAVVKCSKSGDLYVLAADKVASVASTLETTFETISTLSGVDLENGTCSHPLIPDKASPLLPANHVTMAKGTGLVHTAPAHGMEDYGVASQHNLPMDCLVDEDGVFTDVAGPELQNKAVLEEGTDVVIKMLQTAKNLLKEEKLVHSYPYDWRTKKPVVIRASKQWFINITDIKTAAKELLKKVKFIPGSALNGMVEMMDRRPYWCISRQRVWGVPIPVFHHKTKDEYLINSQTTEHIVKLVEQHGSDIWWTLPPEQLLPKEVLSEVGGPDALEYVPGQDILDIWFDSGTSWSYVLPGPDQRADLYLEGKDQLGGWFQSSLLTSVAARKRAPYKTVIVHGFTLGEKGEKMSKSLGNVIHPDVVVNGGQDQSKEPPYGADVLRWWVADSNVFTEVAIGPSVLNAARDDISKLRNTLRFLLGNVADFNPETDSIPVNDMYVIDQYMLHLLQDLANKITELYKQYDFGKVVRLLRTFYTRELSNFYFSIIKDRLYCEKENDPKRRSCQTALVEILDVIVRSFAPILPHLAEEVFQHIPYIKEPKSVFRTGWISTSSIWKKPGLEEAVESACAMRDSFLGSIPGKNAAEYKVITVIEPGLLFEIIEMLQSEETSSTSQLNELMMASESTLLAQEPREMTADVIELKGKFLINLEGGDIREESSYKVIVMPTTKEKCPRCWKYTAESSDTLCPRCAEVVSGK
B2: NOMO1_HUMAN (protein, UniProt Q15155 32-1222, looked up)
BOS complex subunit NOMO1: SEDIVVGCGGFVKSDVEINYSLIEIKLYTKHGTLKYQTDCAPNNGYFMIPLYDKGDFILKIEPPLGWSFEPTTVELHVDGVSDICTKGGDINFVFTGFSVNGKVLSKGQPLGPAGVQVSLRNTGTEAKIQSTVTQPGGKFAFFKVLPGDYEILATHPTWALKEASTTVRVTNSNANAASPLIVAGYNVSGSVRSDGEPMKGVKFLLFSSLVTKEDVLGCNVSPVPGFQPQDESLVYLCYTVSREDGSFSFYSLPSGGYTVIPFYRGERITFDVAPSRLDFTVEHDSLKIEPVFHVMGFSVTGRVLNGPEGDGVPEAVVTLNNQIKVKTKADGSFRLENITTGTYTIHAQKEHLYFETVTIKIAPNTPQLADIIATGFSVCGQISIIRFPDTVKQMNKYKVVLSSQDKDKSLVTVETDAHGSFCFKAKPGTYKVQVMVPEAETRAGLTLKPQTFPLTVTNRPMMDVAFVQFLASVSGKVSCLDTCGDLLVTLQSLSRQGEKRSLQLSGKVNAMTFTFDNVLPGKYKISIMHEDWCWKNKSLEVEVLEDDMSAVEFRQTGYMLRCSLSHAITLEFYQDGNGRENVGIYNLSKGVNRFCLSKPGVYKVTPRSCHRFEQAFYTYDTSSPSILTLTAIRHHVLGTITTDKMMDVTVTIKSSIDSEPALVLGPLKSVQELRREQQLAEIEARRQEREKNGNEEGEERMTKPPVQEMVDELQGPFSYDFSYWARSGEKITVTPSSKELLFYPPSMEAVVSGESCPGKLIEIHGKAGLFLEGQIHPELEGVEIVISEKGASSPLITVFTDDKGAYSVGPLHSDLEYTVTSQKEGYVLTAVEGTIGDFKAYALAGVSFEIKAEDDQPLPGVLLSLSGGLFRSNLLTQDNGILTFSNLSPGQYYFKPMMKEFRFEPSSQMIEVQEGQNLKITITGYRTAYSCYGTVSSLNGEPEQGVAMEAVGQNDCSIYGEDTVTDEEGKFRLRGLLPGCVYHVQLKAEGNDHIERALPHHRVIEVGNNDIDDVNIIVFRQINQFDLSGNVITSSEYLPTLWVKLYKSENLDNPIQTVSLGQSLFFHFPPLLRDGENYVVLLDSTLPRSQYDYILPQVSFTAVGYHKHITLIFNPTRKLPEQDIAQGSYIALPLTLLVLLAGYNHDKLIPLLLQLTSRLQGVRALGQAASDNSGPEDAKRQAKKQKTRRT
B3: RB12B_HUMAN (protein, UniProt Q8IXT5 1-1001, looked up)
RNA-binding protein 12B: MAVVIRLLGLPFIAGPVDIRHFFTGLTIPDGGVHIIGGEIGEAFIIFATDEDARRAISRSGGFIKDSSVELFLSSKAEMQKTIEMKRTDRVGRGRPGSGTSGVDSLSNFIESVKEEASNSGYGSSINQDAGFHTNGTGHGNLRPRKTRPLKAENPYLFLRGLPYLVNEDDVRVFFSGLCVDGVIFLKHHDGRNNGDAIVKFASCVDASGGLKCHRSFMGSRFIEVMQGSEQQWIEFGGNAVKEGDVLRRSEEHSPPRGINDRHFRKRSHSKSPRRTRSRSPLGFYVHLKNLSLSIDERDLRNFFRGTDLTDEQIRFLYKDENRTRYAFVMFKTLKDYNTALSLHKTVLQYRPVHIDPISRKQMLKFIARYEKKRSGSLERDRPGHVSQKYSQEGNSGQKLCIYIRNFPFDVTKVEVQKFFADFLLAEDDIYLLYDDKGVGLGEALVKFKSEEQAMKAERLNRRRFLGTEVLLRLISEAQIQEFGVNFSVMSSEKMQARSQSRERGDHSHLFDSKDPPIYSVGAFENFRHQLEDLRQLDNFKHPQRDFRQPDRHPPEDFRHSSEDFRFPPEDFRHSPEDFRRPREEDFRRPSEEDFRRPWEEDFRRPPEDDFRHPREEDWRRPLEEDWRRPLEEDFRRSPTEDFRQLPEEDFRQPPEEDLRWLPEEDFRRPPEEDWRRPPEEDFRRPLQGEWRRPPEDDFRRPPEEDFRHSPEEDFRQSPQEHFRRPPQEHFRRPPPEHFRRPPPEHFRRPPPEHFRRPPPEHFRRPPPEHFRRPPPEHFRRPPQEHFRRPPQEHFRRSREEDFRHPPDEDFRGPPDEDFRHPPDEDFRSPQEEDFRCPSDEDFRQLPEEDLREAPEEDPRLPDNFRPPGEDFRSPPDDFRSHRPFVNFGRPEGGKFDFGKHNMGSFPEGRFMPDPKINCGSGRVTPIKIMNLPFKANVNEILDFFHGYRIIPDSVSIQYNEQGLPTGEAIVAMINYNEAMAAIKDLNDRPVGPRKVKLTLL
B4: RBM10_HUMAN (protein, UniProt P98175 1-930, looked up)
RNA-binding protein 10: MEYERRGGRGDRTGRYGATDRSQDDGGENRSRDHDYRDMDYRSYPREYGSQEGKHDYDDSSEEQSAEDSYEASPGSETQRRRRRRHRHSPTGPPGFPRDGDYRDQDYRTEQGEEEEEEEDEEEEEKASNIVMLRMLPQAATEDDIRGQLQSHGVQAREVRLMRNKSSGQSRGFAFVEFSHLQDATRWMEANQHSLNILGQKVSMHYSDPKPKINEDWLCNKCGVQNFKRREKCFKCGVPKSEAEQKLPLGTRLDQQTLPLGGRELSQGLLPLPQPYQAQGVLASQALSQGSEPSSENANDTIILRNLNPHSTMDSILGALAPYAVLSSSNVRVIKDKQTQLNRGFAFIQLSTIVEAAQLLQILQALHPPLTIDGKTINVEFAKGSKRDMASNEGSRISAASVASTAIAAAQWAISQASQGGEGTWATSEEPPVDYSYYQQDEGYGNSQGTESSLYAHGYLKGTKGPGITGTKGDPTGAGPEASLEPGADSVSMQAFSRAQPGAAPGIYQQSAEASSSQGTAANSQSYTIMSPAVLKSELQSPTHPSSALPPATSPTAQESYSQYPVPDVSTYQYDETSGYYYDPQTGLYYDPNSQYYYNAQSQQYLYWDGERRTYVPALEQSADGHKETGAPSKEGKEKKEKHKTKTAQQIAKDMERWARSLNKQKENFKNSFQPISSLRDDERRESATADAGYAILEKKGALAERQHTSMDLPKLASDDRPSPPRGLVAAYSGESDSEEEQERGGPEREEKLTDWQKLACLLCRRQFPSKEALIRHQQLSGLHKQNLEIHRRAHLSENELEALEKNDMEQMKYRDRAAERREKYGIPEPPEPKRRKYGGISTASVDFEQPTRDGLGSDNIGSRMLQAMGWKEGSGLGRKKQGIVTPIEAQTRVRGSGLGARGSSYGVTSTESYKETLHKTMVTRFNEAQ
B5: AAAT_HUMAN (protein, UniProt Q15758 1-541, looked up)
Neutral amino acid …: MVADPPRDSKGLAAAEPTANGGLALASIEDQGAAAGGYCGSRDQVRRCLRANLLVLLTVVAVVAGVALGLGVSGAGGALALGPERLSAFVFPGELLLRLLRMIILPLVVCSLIGGAASLDPGALGRLGAWALLFFLVTTLLASALGVGLALALQPGAASAAINASVGAAGSAENAPSKEVLDSFLDLARNIFPSNLVSAAFRSYSTTYEERNITGTRVKVPVGQEVEGMNILGLVVFAIVFGVALRKLGPEGELLIRFFNSFNEATMVLVSWIMWYAPVGIMFLVAGKIVEMEDVGLLFARLGKYILCCLLGHAIHGLLVLPLIYFLFTRKNPYRFLWGIVTPLATAFGTSSSSATLPLMMKCVEENNGVAKHISRFILPIGATVNMDGAALFQCVAAVFIAQLSQQSLDFVKIITILVTATASSVGAAGIPAGGVLTLAIILEAVNLPVDHISLILAVDWLVDRSCTVLNVEGDALGAGLLQNYVDRTESRSTEPELIQVKSELPLDPLPVPTEEGNPLLKHYRGPAGDATVASEKESVM
B6: SMC1A_HUMAN (protein, UniProt Q14683 1-1233, looked up)
Structural maintenance of …: MGFLKLIEIENFKSYKGRQIIGPFQRFTAIIGPNGSGKSNLMDAISFVLGEKTSNLRVKTLRDLIHGAPVGKPAANRAFVSMVYSEEGAEDRTFARVIVGGSSEYKINNKVVQLHEYSEELEKLGILIKARNFLVFQGAVESIAMKNPKERTALFEEISRSGELAQEYDKRKKEMVKAEEDTQFNYHRKKNIAAERKEAKQEKEEADRYQRLKDEVVRAQVQLQLFKLYHNEVEIEKLNKELASKNKEIEKDKKRMDKVEDELKEKKKELGKMMREQQQIEKEIKEKDSELNQKRPQYIKAKENTSHKIKKLEAAKKSLQNAQKHYKKRKGDMDELEKEMLSVEKARQEFEERMEEESQSQGRDLTLEENQVKKYHRLKEEASKRAATLAQELEKFNRDQKADQDRLDLEERKKVETEAKIKQKLREIEENQKRIEKLEEYITTSKQSLEEQKKLEGELTEEVEMAKRRIDEINKELNQVMEQLGDARIDRQESSRQQRKAEIMESIKRLYPGSVYGRLIDLCQPTQKKYQIAVTKVLGKNMDAIIVDSEKTGRDCIQYIKEQRGEPETFLPLDYLEVKPTDEKLRELKGAKLVIDVIRYEPPHIKKALQYACGNALVCDNVEDARRIAFGGHQRHKTVALDGTLFQKSGVISGGASDLKAKARRWDEKAVDKLKEKKERLTEELKEQMKAKRKEAELRQVQSQAHGLQMRLKYSQSDLEQTKTRHLALNLQEKSKLESELANFGPRINDIKRIIQSREREMKDLKEKMNQVEDEVFEEFCREIGVRNIREFEEEKVKRQNEIAKKRLEFENQKTRLGIQLDFEKNQLKEDQDKVHMWEQTVKKDENEIEKLKKEEQRHMKIIDETMAQLQDLKNQHLAKKSEVNDKNHEMEEIRKKLGGANKEMTHLQKEVTAIETKLEQKRSDRHNLLQACKMQDIKLPLSKGTMDDISQEEGSSQGEDSVSGSQRISSIYAREALIEIDYGDLCEDLKDAQAEEEIKQEMNTLQQKLNEQQSVLQRIAAPNMKAMEKLESVRDKFQETSDEFEAARKRAKKAKQAFEQIKKERFDRFNACFESVATNIDEIYKALSRNSSAQAFLGPENPEEPYLDGINYNCVAPGKRFRPMDNLSGGEKTVAALALLFAIHSYKPAPFFVLDEIDAALDNTNIGKVANYIKEQSTCNFQAIVISLKEEFYTKAESLIGVYPEQGDCVISKVLTFDLTKYPDANPNPNEQ

System: KDM4A-I71AzF
Experiment: CASI: photo-crosslinking with HEK293T cell extracts, StrepTactin enrichment and LC-MS/MS proteomics;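 note: lysates from HEK293T cells pretreated with a KDM4 inhibitor to raise proteome methylation, affinity-purified after ±UV, gel-resolved, trypsin-digested, with exclusive unique peptides per protein averaged per condition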
Type: binding, human
Settings: sheet "Final results but with 0.01"

Molecule	Fold change (+UV/-UV)
B1	4
B2	0
B3	0.8462
B4	0
B5	0.25
B6	0.4286
